Data on one molecule can be found in PMC3056349 (Neuron, 2011).

The assay addresses PTPσ-CFP (protein tyrosine phosphatase receptor PTPσ expressed in COS cells) (UniProt Q13332 30-1948). Kind of assay: cell-surface binding assay.

PTPσ-CFP (protein tyrosine phosphatase receptor PTPσ expressed in COS cells), sequence (Q13332 30-1948): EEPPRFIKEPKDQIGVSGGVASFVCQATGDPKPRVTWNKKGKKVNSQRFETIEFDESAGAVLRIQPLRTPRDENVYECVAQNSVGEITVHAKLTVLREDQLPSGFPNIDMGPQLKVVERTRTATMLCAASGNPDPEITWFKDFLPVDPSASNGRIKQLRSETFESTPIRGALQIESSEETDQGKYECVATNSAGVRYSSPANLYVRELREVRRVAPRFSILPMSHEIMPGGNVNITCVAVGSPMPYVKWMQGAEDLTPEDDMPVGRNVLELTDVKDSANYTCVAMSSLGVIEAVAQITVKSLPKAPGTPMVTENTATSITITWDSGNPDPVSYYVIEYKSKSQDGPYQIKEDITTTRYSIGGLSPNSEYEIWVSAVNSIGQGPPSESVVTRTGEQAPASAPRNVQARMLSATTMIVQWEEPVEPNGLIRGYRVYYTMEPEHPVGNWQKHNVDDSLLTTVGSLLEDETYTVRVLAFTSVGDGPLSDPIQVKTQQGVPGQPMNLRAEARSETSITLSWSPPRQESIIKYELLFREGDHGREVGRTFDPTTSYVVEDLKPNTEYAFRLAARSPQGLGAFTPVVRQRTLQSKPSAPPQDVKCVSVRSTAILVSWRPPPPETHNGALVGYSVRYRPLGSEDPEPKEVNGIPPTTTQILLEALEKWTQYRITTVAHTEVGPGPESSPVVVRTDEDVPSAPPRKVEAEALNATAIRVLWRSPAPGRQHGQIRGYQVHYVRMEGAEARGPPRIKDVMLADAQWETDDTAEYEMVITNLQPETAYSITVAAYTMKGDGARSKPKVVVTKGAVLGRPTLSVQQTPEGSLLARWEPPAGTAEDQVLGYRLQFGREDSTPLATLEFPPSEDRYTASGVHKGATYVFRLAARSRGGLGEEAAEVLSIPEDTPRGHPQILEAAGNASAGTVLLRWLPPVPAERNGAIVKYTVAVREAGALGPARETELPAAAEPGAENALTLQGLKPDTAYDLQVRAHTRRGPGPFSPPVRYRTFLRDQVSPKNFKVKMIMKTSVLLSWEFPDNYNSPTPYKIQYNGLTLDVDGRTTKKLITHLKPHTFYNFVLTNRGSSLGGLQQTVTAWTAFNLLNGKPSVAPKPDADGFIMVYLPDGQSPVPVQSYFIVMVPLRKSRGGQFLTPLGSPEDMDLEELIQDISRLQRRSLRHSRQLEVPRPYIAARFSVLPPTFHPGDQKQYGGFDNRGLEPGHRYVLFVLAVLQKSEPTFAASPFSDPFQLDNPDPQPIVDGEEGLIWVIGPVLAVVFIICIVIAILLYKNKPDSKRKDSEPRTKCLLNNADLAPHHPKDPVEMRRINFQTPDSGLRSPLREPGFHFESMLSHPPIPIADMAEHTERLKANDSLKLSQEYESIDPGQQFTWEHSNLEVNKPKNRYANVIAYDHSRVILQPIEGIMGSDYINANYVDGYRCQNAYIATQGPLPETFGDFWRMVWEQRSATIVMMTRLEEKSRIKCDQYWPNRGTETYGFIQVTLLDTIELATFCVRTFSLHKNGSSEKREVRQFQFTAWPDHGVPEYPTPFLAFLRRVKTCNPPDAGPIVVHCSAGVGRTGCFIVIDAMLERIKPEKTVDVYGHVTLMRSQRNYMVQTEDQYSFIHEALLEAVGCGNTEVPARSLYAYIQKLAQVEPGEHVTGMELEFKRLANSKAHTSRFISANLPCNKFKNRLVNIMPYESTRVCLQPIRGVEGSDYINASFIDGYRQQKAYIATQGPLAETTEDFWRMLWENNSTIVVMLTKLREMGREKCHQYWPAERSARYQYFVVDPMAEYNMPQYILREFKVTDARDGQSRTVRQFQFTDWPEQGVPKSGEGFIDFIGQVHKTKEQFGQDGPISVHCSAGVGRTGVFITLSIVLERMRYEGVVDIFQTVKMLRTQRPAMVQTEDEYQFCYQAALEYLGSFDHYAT

B1: TrkC-Fc (soluble purified TrkC ectodomain fused to human immunoglobulin Fc region) (Fc fusion, rat, UniProt Q03351 32-429, looked up)
chain: CPANCVCSKTEINCRRPDDGNLFPLLEGQDSGNSNGNASINITDISRNITSIHIENWRGLHTLNAVDMELYTGLQKLTIKNSGLRNIQPRAFAKNPHLRYINLSSNRLTTLSWQLFQTLSLRELRLEQNFFNCSCDIRWMQLWQEQGEARLDSQSLYCISADGSQLPLFRMNISQCDLPEISVSHVNLTVREGDNAVITCNGSGSPLPDVDWIVTGLQSINTHQTNLNWTNVHAINLTLVNVTSEDNGFTLTCIAENVVGMSNASVALTVYYPPRVVSLVEPEVRLEHCIEFVVRGNPTPTLHWLYNGQPLRESKIIHMDYYQEGEVSEGCLLFNKPTHYNNGNYTLIAKNALGTANQTINGHFLKEPFPESTDFFDFESDASPTPPITVTHKPEEDT
Take B1: the dissociation constant (Kd) worked out at 9.3 nM. That is a single-digit nanomolar value.

Broadly, the Kd is the constant that tells how readily two partners part at equilibrium. A higher Kd goes with lower affinity.
